{
  "source": "paper doi:10.1101/2020.05.20.106609",
  "about": "(bioRxiv, 2020)",
  "data": [
    {"target": "SARS-CoV-2 spike protein (SARS-CoV-2 Wuhan-Hu-1 (QHD43416), UniProt P0DTC2, stabilised)", "assay": "ELISA", "values": [
      {"binder": "MD17 (scFv, V domains shown) VH: EVQLLESGGGLVQPGGSLRLSCSASGFTFSTYVMNWVRQAPGKGLEHVSGISSDGGITYYADSVKGRFTISRDNSKNTLYLQMSSLRVEDTAVYYCVKDQDSSSWYDAFDIWGQGTMVTVSS VL: DIVMTQSPSSLSASVGDRVTITCRASQSISNYLNWYQQKLGKAPKLLTYAASRLQSGVPSRFSASGSGTEFTLTISSLQPEDFATYYCQQSYTTPLTFGGGTKLEIK", "binding result": "binds"},
      {"binder": "MD29 (scFv, V domains shown) VH: QMQLVQSGGGLVQPGGSLRLSCSASGFTFSTYVMNWVRQAPGKGPEHVSGISSDGGITYYADSVKGRFTISRDNSKNTLYLQMSSLRVEDTAVYYCVKDQDSSSWYDAFDIWGQGTMVTVSS VL: NIRLTQSPSSLSASVGDRVTITCRATQSISSYLNWYQQKPGKAPNLLIYAASSLQSGVPSRFSGSGSGTDFTLTISSLQPEDFATYYCHQTYTSPYTFGQGTKLEIK", "binding result": "binds"},
      {"binder": "MD62 (scFv, V domains shown) VH: EVQLVQSGGGLIQPGGSLRLSCAASGVTVSSNYMTWVRQAPGKGLEWVSLIYSGGSTYYADSVKGRFTISRDNSKNTLYLQMNSLRAEDTAVYYCARDLQYYGMDVWGQGTMVTVSS VL: AIRMTQSPSSVSASVGDRVTITCRASQDIGSWLGWYQQKPGKAPKLLIYAASSLAGGVPSRFSGSGSGTDFTLTISSLQPEDFATYYCQQANSFPLTFGGGTKLEIK", "binding result": "binds"},
      {"binder": "MD47 (scFv, V domains shown) V domain 1: QMQLVQSGGGLVQPGGSLRLSCAASGFTFSSYAMSWVRQAPGKGLEWVSAISSGGSTYYADSVKGRFTISRDNSKNTLYLQMNSLRAEDTAVYYCAKDLVTAPSYEAFDIWGQGTMITVSS V domain 2: NFMLTQPPSVSVAPGKTARITCGGNNIGSKSVHWYQQKPGQAPVLVIYYDSDRPSGIPERFSGSNSGNTATLTISRVEAGDEADYYCQVWDSSSHHHVVFGGGTKGTVL", "binding result": "binds"}
    ]}
  ]
}
